Values quoted from earlier work in paper PMC11816674.

Legend:
[1] = molecular target: Cav1.4 1579-1605 (Homo sapiens) (UniProt O60840)
IP3R N-terminal region = IP3R N-terminal region (UniProt Q14643)
UniProt Q14643, sequence (Q14643 1-604): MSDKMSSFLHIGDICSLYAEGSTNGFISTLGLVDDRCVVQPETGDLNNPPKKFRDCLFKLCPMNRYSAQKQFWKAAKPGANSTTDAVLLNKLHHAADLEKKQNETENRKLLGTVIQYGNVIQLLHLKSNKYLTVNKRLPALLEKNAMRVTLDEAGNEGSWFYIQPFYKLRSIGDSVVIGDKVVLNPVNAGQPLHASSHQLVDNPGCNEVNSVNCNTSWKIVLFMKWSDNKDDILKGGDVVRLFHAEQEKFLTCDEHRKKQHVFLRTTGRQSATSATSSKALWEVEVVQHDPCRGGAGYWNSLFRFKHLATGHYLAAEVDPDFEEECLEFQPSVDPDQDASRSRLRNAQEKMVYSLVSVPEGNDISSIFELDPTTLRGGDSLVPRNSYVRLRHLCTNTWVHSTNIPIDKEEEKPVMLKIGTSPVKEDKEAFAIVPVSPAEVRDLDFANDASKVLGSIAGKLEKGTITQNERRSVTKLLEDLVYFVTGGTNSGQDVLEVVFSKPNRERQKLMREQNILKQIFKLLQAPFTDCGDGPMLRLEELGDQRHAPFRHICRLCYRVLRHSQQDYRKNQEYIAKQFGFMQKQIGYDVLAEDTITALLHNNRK

UniProt O60840, sequence (O60840 1579-1605): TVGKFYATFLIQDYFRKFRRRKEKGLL

Substance | Kd [1] [nM] | Kd (IP3R N-terminal region) [nM]
CaBP4 (from UniProt P57796) | 800 | 
CaBP1 (from UniProt Q9NZU7) |  | 3000
